IntAct's records for PubMed 18477457

B1: Protein pop-1 (Caenorhabditis elegans), Q10666 (parent)
chain: MMADEELGDEVKVFRRDEDADDDPMISGETSEQQLADDKKEAVMEAELDGAGRNPSIDVLKSAFPKVEPMSPSFPGLMSHFSPGYSAAALPMFMPLFMNPYAAALRSPSLMFPMGAMSPTFPMFPPSPVYGAAIAAAAAKQHFENMAPLNMRAGHPMNQMGMPPYMHPSSMAPQNVDRRAQGGGKAKKDDHVKKPLNAFMWFMKENRKALLEEIGNNEKQSAELNKELGKRWHDLSKEEQAKYFEMAKKDKETHKERYPEWSARENYAVNKKKTKKRRDKSIPSENNDQKKCRARFGVNNTEMWCKFCKRKKKCEYATDRSGGSDITDSQDGRGTSGAYSSSSESPSPKANAGIALTTQQQQAAMMHTMLMQMRLGSTTGASTHVPSPLASSSAGRSPLDANASDSESDVEEEEDEQIDPTVMQQTHDMLMQESMCTI
partner: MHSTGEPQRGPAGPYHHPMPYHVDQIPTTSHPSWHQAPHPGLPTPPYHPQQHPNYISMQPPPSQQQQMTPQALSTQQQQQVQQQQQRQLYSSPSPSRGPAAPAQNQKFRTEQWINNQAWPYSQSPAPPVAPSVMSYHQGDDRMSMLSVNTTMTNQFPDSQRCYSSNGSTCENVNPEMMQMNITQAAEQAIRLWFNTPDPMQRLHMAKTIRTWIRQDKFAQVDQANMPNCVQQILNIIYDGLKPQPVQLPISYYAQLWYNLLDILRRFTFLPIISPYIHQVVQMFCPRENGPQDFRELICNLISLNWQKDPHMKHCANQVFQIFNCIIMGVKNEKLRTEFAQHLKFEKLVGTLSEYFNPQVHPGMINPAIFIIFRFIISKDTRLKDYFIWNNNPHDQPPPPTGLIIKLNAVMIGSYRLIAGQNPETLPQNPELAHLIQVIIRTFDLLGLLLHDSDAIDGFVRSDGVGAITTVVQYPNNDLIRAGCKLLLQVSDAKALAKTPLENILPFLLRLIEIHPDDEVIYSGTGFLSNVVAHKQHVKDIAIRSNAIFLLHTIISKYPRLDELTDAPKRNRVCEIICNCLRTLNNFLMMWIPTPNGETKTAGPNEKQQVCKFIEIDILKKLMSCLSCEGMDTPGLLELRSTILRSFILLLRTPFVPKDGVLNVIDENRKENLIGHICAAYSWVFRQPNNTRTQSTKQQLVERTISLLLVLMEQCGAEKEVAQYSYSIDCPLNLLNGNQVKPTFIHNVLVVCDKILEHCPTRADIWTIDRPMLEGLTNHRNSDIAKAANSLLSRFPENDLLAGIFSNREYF
B2: Beta-catenin homolog sys-1 (Caenorhabditis elegans), Q9XVI2 (parent)
chain: B1 partner
partner: B1 chain

Variants of: B1
Conditions: with ctnh1_caeel sys-1, Q9XVI2

Variant | effect of a mutation on the interaction
D9E | disrupting interaction strength

Variants of: B2
Conditions: with pop1_caeel pop-1, Q10666

Variant | effect of a mutation on the interaction
K539A | disrupting interaction strength
A533L | disrupting interaction strength
